# Measured values reported in the supplement of paper PMC10724198.
# ± gives the standard deviation of the averaged measurements.
# Test system: Saccharomyces cerevisiae
# Test: protein stability index of tFT-peptide fusion (C-terminal peptide) (PSI (0-1 scale)); higher = more stable (slower turnover)
# Conditions: genetic background: wild type; temperature: 30 C
# Method: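 Multiplexed protein stability (MPS) profiling in S. cerevisiae. Random 12-aa peptides (tFT-X12 library) are fused to the C-terminus of a sfGFP-mCherry tandem fluorescent timer, after mCherry and a GGGS linker. Cells are FACS-sorted into 8 mCherry/sfGFP bins and deep-sequenced. The protein stability index (PSI) is the read-weighted bin average, scaled from 0 (unstable) to 1 (stable). Only peptides with >10 reads are reported; cells were grown at 30 °C in SC-His with glucose.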
# 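Further: PSI is a weighted mean of sequencing reads over stability bins, variants kept only with over 10 reads, mCherry proximal and sfGFP distal, peptide attached via GGGS linker.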
row,Sequence,protein stability index
1,ESKCADNKMKRK,0.652 ± 0.022
2,ESQKKEKTKPKN,0.655 ± 0.023
3,ESRWRSPCFIIW,0.626 ± 0.11
4,ESSKVRNLELLK,0.669 ± 0.017
5,ESTKKQSTAPKN,0.714 ± 0.043
6,ESVGLGDRRVCS,0.65 ± 0.024
7,ETEKHGIRRRQG,0.644 ± 0.027
8,ETKKKTNKRAEK,0.689 ± 0.053
9,ETRKINELRAKK,0.642 ± 0.087
10,ETRKKKLTNSRT,0.622 ± 0.071
11,EVAFGLLPPHDS,0.701 ± 0.019
12,EVESYVVSGDRW,0.608 ± 0.042
13,EVFGNVREAHCV,0.707 ± 0.019
14,EVVEDGAEEVGR,0.685 ± 0.053
15,EVWSYCPAFFVD,0.736 ± 0.016
16,EWALAESGYDEP,0.746 ± 0.05
17,EWCQVGGRGFLG,0.74 ± 0.021
18,EWEKKKRGNTRK,0.642 ± 0.022
19,EWRDSCLLKWWV,0.725 ± 0.015
20,EWRWCESKIITV,0.625 ± 0.028
21,EWVLRTLVDTNW,0.728 ± 0.0075
22,EWVSGWIVRWWR,0.679 ± 0.076
23,EYAVDAERLRTT,0.72 ± 0.053
24,EYDIKRRKRRNT,0.67 ± 0.23
25,EYISNLLSSPEP,0.633 ± 0.013
26,EYRCVAQHSLLH,0.743 ± 0.049

row,Sequence,protein stability index
1,EYRRADYCLGVG,0.547 ± 0.011
2,FAAKASVLRMRR,0.605 ± 0.029
3,FAFPQASHPVRI,0.664 ± 0.063
4,FAGGAVNIGVVG,0.71 ± 0.015
5,FAGGPSIAAHVL,0.712 ± 0.2
6,FAIFSGMSFGVY,0.693 ± 0.05
7,FALLVSDISGRI,0.811 ± 0.03
8,FAPCSPKAVFCS,0.589 ± 0.037
9,FAPSAGGSLAGP,0.698 ± 0.033
10,FARPQCLPVPLP,0.6555 ± 0.001
11,FARQSMLSKLQI,0.587 ± 0.033
12,FASTEDDKKNTT,0.6746 ± 0.0029
13,FAWSPPACFIPS,0.654 ± 0.011
14,FAWYSFYSPPPR,0.667 ± 0.0048
15,FCGFLVLGSFPV,0.664 ± 0.072
16,FCLIHCIVPFPV,0.507 ± 0.093
17,FCNPHVGGIRRA,0.684 ± 0.05
18,FCPVGVFCGIFG,0.644 ± 0.029
19,FCRLSHYLSASP,0.687 ± 0.17
20,FCSVTLPSRSCV,0.727 ± 0.098
21,FDCMVRVRTTVV,0.544 ± 0.027
22,FDLVFRPVLGLL,0.6246 ± 0.0052
23,FECDYLLCGAGL,0.744 ± 0.029
24,FELTSATWRGCF,0.685 ± 0.094
25,FEVRLRCLGYSG,0.718 ± 0.015
26,FFDPPPSLSALI,0.7724 ± 0.0037

row,Sequence,protein stability index
1,FFEVFDNYRSLV,0.684 ± 0.051
2,FFFFPFLPFSWF,0.507 ± 0.0084
3,FFITFGFSSGSR,0.675 ± 0.068
4,FFPSPHVPPPPP,0.617 ± 0.018
5,FFPSPPPVLSPP,0.747 ± 0.021
6,FFSGYVVSTRHM,0.702 ± 0.089
7,FFSMVFVFGFRA,0.5 ± 0.015
8,FFSRFCYGFGRM,0.723 ± 0.066
9,FFSSALILSLRL,0.533 ± 0.023
10,FFVGAGGTEGLG,0.705 ± 0.0088
11,FFVVGEEFCVSV,0.649 ± 0.054
12,FGASSGSARVCG,0.682 ± 0.083
13,FGEAFYVGCVHV,0.698 ± 0.037
14,FGFLDRVLLFRV,0.547 ± 0.013
15,FGFSSGRVRQRV,0.754 ± 0.011
16,FGGSGAYRRVGE,0.7 ± 0.072
17,FGGVGRGGLLWC,0.7749 ± 0.0041
18,FGIGWNDRLVEC,0.669 ± 0.057
19,FGSCVIFAAHWF,0.6467 ± 0.0025
20,FGSVGSIRTPDG,0.707 ± 0.0086
21,FGTKSLPSLLAM,0.583 ± 0.034
22,FGVRPVSVPLCG,0.592 ± 0.047
23,FGVSFFSGVNGV,0.681 ± 0.011
24,FGWKTGGRGTVM,0.742 ± 0.04
25,FHFFSFLSSVGF,0.6434 ± 0.0062
26,FHFPHPFLPFPS,0.666 ± 0.12

row,Sequence,protein stability index
1,FHPRLGVRLGIT,0.632 ± 0.046
2,FHPRPPLLPSLP,0.6435 ± 0.003
3,FHRESAEPSLWS,0.697 ± 0.11
4,FHRHILCSDPRL,0.709 ± 0.022
5,FHRSNFLPFFHL,0.593 ± 0.092
6,FHYALRLLDFNN,0.716 ± 0.12
7,FIFHFLMFPGPL,0.56 ± 0.013
8,FIGLGPGVGGVW,0.704 ± 0.028
9,FIIIKTKKMTMK,0.7 ± 0.064
10,FIKTSDAVIGEK,0.563 ± 0.017
11,FISVFYMLFPYR,0.626 ± 0.013
12,FIVPLFPVFFSS,0.621 ± 0.05
13,FLAWPRSDYPGF,0.732 ± 0.022
14,FLCLVASLFRFA,0.585 ± 0.043
15,FLCSRYRGYMPT,0.632 ± 0.086
16,FLFCWGCCRLFW,0.581 ± 0.1
17,FLFGILFTSRAV,0.5311 ± 0.0015
18,FLFTLPPPPRCH,0.709 ± 0.088
19,FLGLDLVFRFFV,0.554 ± 0.066
20,FLGQPLSFSHVL,0.692 ± 0.035
21,FLIRSSQSFELE,0.715 ± 0.035
22,FLKGTTSQQDYT,0.7022 ± 0.0056
23,FLLFASPPPRPL,0.715 ± 0.017
24,FLLPPPFLPLPL,0.691 ± 0.028
25,FLLSARGVIVFW,0.544 ± 0.018
26,FLLSLYSVPFVL,0.63984 ± 0.00021

row,Sequence,protein stability index
1,FLNRDGFETLFC,0.686 ± 0.022
2,FLPPPPRRPFTR,0.6282 ± 0.0057
3,FLPRGPLPPSPF,0.595 ± 0.026
4,FLRCALRLRFGF,0.671 ± 0.038
5,FLRGRTPLTAGD,0.582 ± 0.022
6,FLSEPAKRILYL,0.667 ± 0.018
7,FLSFFVLGVPGG,0.707 ± 0.039
8,FLSHISVPRGKT,0.773 ± 0.034
9,FLVREGIGKRGC,0.641 ± 0.072
10,FLVRMIYYRRHP,0.616 ± 0.028
11,FMSGIVDLQRPL,0.691 ± 0.034
12,FMVFCFPFTGVL,0.562 ± 0.022
13,FMVVKWSPCAWC,0.539 ± 0.026
14,FNFSSGLTGSWL,0.763 ± 0.024
15,FPASPQPPPPLP,0.627 ± 0.024
16,FPDGLGSVPRSP,0.68389 ± 0.0004
17,FPFTLSPTLFHS,0.714 ± 0.08
18,FPLFRSLLLFAP,0.5331 ± 0.00081
19,FPLLCAAPLLSS,0.594 ± 0.0012
20,FPLYKQKSGITY,0.651 ± 0.0081
21,FPPARPDFPPST,0.735 ± 0.025
22,FPPIHIHSPCYP,0.765 ± 0.021
23,FPPPPLYFPFPL,0.693 ± 0.017
24,FPQSDFFLLILS,0.549 ± 0.013
25,FPRPACRSTHIL,0.671 ± 0.065
26,FPRPPSVLACRP,0.645 ± 0.088

row,Sequence,protein stability index
1,FPRVTGTKPPPA,0.7201 ± 0.0023
2,FPSPPLPSSSTS,0.708 ± 0.051
3,FQAERTGVTRAR,0.666 ± 0.0078
4,FQAVSPRFLVLP,0.64 ± 0.046
5,FQGSDCLYFGLL,0.741 ± 0.043
6,FQHFGAPPTWHE,0.742 ± 0.093
7,FQVCAPLPISRS,0.717 ± 0.029
8,FRAPVLCPSYYS,0.7064 ± 0.0049
9,FRDPPSILTSDT,0.621 ± 0.017
10,FRGAGAEGSGWG,0.634 ± 0.0066
11,FRLILGCPFACL,0.576 ± 0.034
12,FRLKRFSGTGYG,0.698 ± 0.035
13,FRLPAIRRGHDS,0.69 ± 0.069
14,FRRILGTIKLGR,0.69 ± 0.023
15,FRTVRSMVGRRP,0.721 ± 0.077
16,FRWGGPSGEVRE,0.643 ± 0.1
17,FSACSGSHVEVW,0.695 ± 0.037
18,FSFFVESFPASF,0.668 ± 0.036
19,FSFIPIRRYPVM,0.733 ± 0.15
20,FSGFRFFLLWPW,0.678 ± 0.085
21,FSHLRASFADAA,0.687 ± 0.045
22,FSIFFFSFFSCF,0.563 ± 0.039
23,FSILYLLPPGPL,0.663 ± 0.092
24,FSKTLCGCQITC,0.658 ± 0.037
25,FSLCFSSFSLFP,0.676 ± 0.016
